In the DeepSol protein solubility set:

Test: soluble on expression in E. coli; label from the status in PepcDB or PDB records

Soluble on expression in E. coli, soluble:
MAHHHHHHMMNKNDITIDENNKYIFRASSFYNKDGLLIKSYSWEVREPLGIIILVHGLASHIRFGFLKQNAKIVNNDHAVLIDGDNYYIYEGSWIEKLNKNGYSVYGLDLQGHGESDGYQNLKLHIKDYDDYIYDLIDFIKSVYESIISKKEKKQMYIRDNDIIETVPIYLVGYSMGANIILRALQLLNKSNDNLISKLNIKAFISLAGMISIKNIGSIDSLKYKYLFLPIIKMLSYVCPTYRLRKKHSGFKRFPYINDLMNFDKLRYKKGMTNKLAYEVIKSVYILKKYINDIPQNVPILFIHSRHDSVCAYEEVLSFYNNLYNTNKEIYTLENMDHVVTLEPENEQALNKMLTWIKKCE
MLSAWFSGKYSVLKDENGYVFLDRDGDRFRHILNYLRCGTVHIGEDIRLLGEILEEAEYFGLQSLAQQLKEALLQCRVKQEEKESSVCGRMNNEDNLFHPMFEPLDGFSSSQTSQGEPLLTLLPSSQEFRLDEDF
MSLTRFPVTALRSVDLGTPDLARSEAFYREVWGLERVGTAGGVVYLRATGRDHHVVALHRSARTELRAVTFRVADADDFEAISRNAIEQGATLIAAPAANMAPDGGTIMTLRSPEGGLLRFVHGDIRHDARPSRPELPERLAHVNLNSTDVDRTAAFYARALGFKLTDRSAAMAFVRCNSDHHAVVIAAAKVNGLNHVAFLMPTWEGVMRGSGRMIDAGYPIAWGVGRHGPGDNVFAYFIDPVGTVIEYTAEVLQVDDDYVVRGPEHWVWPPGRTDQWGIAPPKAEHVKAAQLAVGFAAEGHHHHHH
MAHHHHHHSTLRHSHEPSPYVQKGEDLSGQKLTPTIKSYRNMEFLNSYSGRMIRILCEFEEPKQRLQQHFIRTTVLFFGSARSMTQAQYDSTVQDIHSKLAAATDDSTKASLQNKLACLKKTQWMCKWVDVVENLARMVAEFSQKEQDMIIRSFRHIPDYFRLTPEDGSESLDDLQKRFHDLVVTTGGGPGFMEAANHGAESVPGAVTMGMGISLPFENGLNPHVTKGLAFEFHYFFTRKFWMMYSCRAIVIAPGGFGTLDEMFELLTLKQTKKIPSLPVVLLGKEFWQTVVNWQALANYGVISQEEIDSLLFTDSAEEAVEHIKDFYHRLASDSPSTE
MNEQVHARLKALARPMTGEEYLESLRDGREVYFMGERVKDVTTHPAFRNTARMFARWYDRLHELHKEDLERSKDPSGWKWTVPTESGNGWTHPFFVGPRSAEDLLKARDTIAELQRTVYGWGGRSPDYKAAFVGTLGPNAEFYAPYQENARRWYKETQEKLLYWNHAIVNPPVDRHKPVEEVGDVYMHVERETDAGIVVSGAKVVATGSAFTHVNFIAHYGPLPIKDKKFALIFVVPMDAKGVKLISRASYEFIAAKTGSPFDYPLSSRLDENDAILVFDNVLVPWENVFVYGDVEKVNAFFPLSGFVHRFPFQGCTRLAVKLDFIAGLTMKALDVTGASQFRGVQARLGEILTYRNLFWALTEAMARDPMPWVDGYVLPNLWAGLTYRVLAPEVYPKIKDIIERDLASALIYLPSHAKDFQNPQIRRYLDQYVRGNGVDAVTRVKIMKALWDAVGTEFGGRHELYERNYAGNHENIRIEVLGAMEAAGVNEALRAFVDKFLGEYDLEGWKVPDLINPTEA
PKQRCRAPACDHFGNAKCNGYCNECFQFKQMYG

Soluble on expression in E. coli, not soluble:
MRVVLAPMEGVLDYRMRDLLTQVGSYDLCVTEFIRVVDQVLPDRVFHRYCPELIDADVYGSCTKAGTPVRVQLLGQYPEYMAENAAKVIELGSSGIDLNFGCPSKTVNKSRGGSILLKDPENLYQIIKAVKEAVPSDTIVSAKIRLGYEDKTLAIENGQAVEAAGANELTIHARTKLEGYKPPAHWHWIAKVKNAINIPVIANGEIWNLEDAIKCREISGCTDLMVGRGALTIPNLGQVIKQESDNMPWLEVRAILSAYTEFETHGDKSKYYCNRIKQWLKYLKSHYKEADVLFDEIRRLKTAEGIRAAL
MSTLEIKNLHAQVVPADESAAPKPILKGVNLTIKSGETHAIMGPNGSGKSTLAYTLSGHPRYEVTDGEVLLDGENILDMDIDERARAGLFLAMQYPTEIPGVSMANFLRSAATAVRGEAPKLREWVKEVKQAQQDLKIDKAFNERSVNEGFSGGEKKRHEVLQLDLLQPKFAVMDETDSGLDVDALRIVSEGINRYQEKSNGGILMITHYKRILNYVQPDFVHVFANGQIITSGGPELADDLEANGYDRFLA
MRLTSKGRYAVTAMLDVALNSEAGPVPLADISERQGISLSYLEQLFSRLRKNGLVSSVRGPGGGYLLGKDASSIAVGEVISAVDESVDATRCQGKGGCQGGDKCLTHALWRDLSDRLTGFLNNLEHHHHHH
MGSDKIHHHHHHESGDIITSDQMDEVDPVAGLNGMYAYLYKFDTMGYGDEAQHYDYGYHHILLCSDLWGQDMIQYSSKYGWYYTDYQFNQNSRAYQYISTFYFWNYLYKLIKSANDVLKTTTDDSKKEDRGQALGMRAFAYLTLVQMYQHTYAGHENAPAVPIVLETTEPDVLSNNPRASVKEVYDLIEKDLVQAHSDLSSYQRLNSTYIDQTVISGLLARMYLLKEDWTNAAKYAKEARASYGAPADKAELIDEGYIDMNKHHTWMFTSHITTDAEIVQTGIVNFISHISSTAYGYVTAGGMFKNISSELYSKIADNDIRKGWFADKDFTYEGGPMGSVALPKYANLKYMWYDLEGNNCNDLCYMRAEEMWLIEAEALAMGGNIAGGKSLLEEFVKTRQPDYVCDATDAKGIQDACWLQRRIEFWGEGIAWFDLKRLKKPIIRKYEGTNHNLDAQYDFPAEDDIFRILIPRKEIQDNNGIGEEDNNPMPNI
MNLHVKTLSLMTWRSRFLEESFWSLEETAALAKQLPLKSPSENIFLHIVDLSDPKQIWKFVENFKQEHKLHVLINNAGCMVNKRELTEDGLEKNFAANTLGVYILTTGLIPVLEKEHDPRVITVSSGGMLVQKLNTNDLQSERTPFDGTMVYAQNKRQQVVLTERWAQGHPAIHFSSMHPGWADTPDRNEQELRKVVGEAQTASPLPRFLEIMMHEGKCQPQGHSSNDLEACWSSGGGEQNSLPDWPHQLHDLRQLTWALCSSFLLYKQGN
PLPATANSHEYLLDNGLKLVVKEDHRSPVVIQQVWYKAGSMDEVNGTTGVAHALEHMMFKGTDSVLAGEFSRKIAAIGGKENAFTSRDYTAYYQQLHQRHLPMAMELESDRMHNLQLTEEAFAKEIQVVMEERRLRTDDQAHSLLYEKMMATAFQTHPYRRPVIGWMNDLENMQVNDARDWYQRWYAPNNAVLVVVGDVDPENVFVLAKKYYGRF
MGSDKIHHHHHHMIHITSLDDGLELFKALGSDIRIQILKILLENNQMSMNQIANELNISNGALTGHIKKLEECGLISASNDSSGHGNQKLCSLIQDRILVEIEKPIDLSNVYNTSIKVGQFSSHNICPTCGLATSSFVIGELDDVRYFDHPDHFNADIMWFTKGYVEYVIPNLIPRNQKITQLSLSAEISSEAPGIDNDWPSDISFYINDTLVGTWTSPGDYGDVRGMFTPEWWPQNWNQYGLLKLLVINHKGTFIDGLKISDITTSELKLDYTSTIRFRIAVEEDSAHVGGLTIFGKSFGNYDQDIVVSINYEPLDTEKNTK
MEDRNITEEDRVCPQLPEFDEQANVQTDLKKMKPGDAIGKNWKVVKAIQSDKGFNTIYVAEHVQKKKKMAAVKVERKTEAIKMLQFELFVLLTVEKKNQCKQFCKLFEKGNEKEYNWIAITLCGKSLRALRKNQPTGKLTVACGLSVAQQCLKGLEELHRMGFIHRNVAPSVFAIGRYTGDNQSDLRNIYILDFGFAHQYMIKDGTLKPPSAHPWKYVGSLRHMPRAAYSKVEFSRMEDLEMWFYMSVELVKGCLPWAHLKKPKEVHDYQKLCRNGLQMREMLGGLPPEFVDIMQIVDKLSFTDTPNYTEIYGLLTNAILFSGKNEFPYDWEEAEINEFKNPQKPSVEQAT
MDDYVPIPFTLLKLPQKSIDVVLRRMCIEALVELSFTSKAAMQQTKHLGIKTERFIIAINSNEILIDVSGCRDFRFYTFECSTPSHHTVQKPIRVHVGFRGERWETPFFGVRQFLNHLMEIFHQTKLDSLHISTADPECSNELKGMEFGWLSMMSMTSDNNSSQDEDALRQFSGKTDSICLNRNPFSIEPSKQMQMILTRNMNVVSTKCDLNDVFVTNARSFTAFLKIEDVNIFLKHWMHRSDRKLKSAWFDLDAFRWDVEDVLEPLFKGIAYHVAPADREFIVHLPKKLSGCGDYRVIGGYDVRRNDGMTATIIVADRANVFLKMFFWI
